One substance from FireProtDB (doi:10.1021/bi982078m) can be followed below.

“And” between values parts separate entries of the source, which are not always exact repeats. Equal values may be shown once.

The conditions of this series: Equus caballus, pH 6, 25 °C, Absorbance, cacodylate 0.03 M, reversible: yes.

Chain of Cytochrome c wild type, P00004 (P00004 whole entry): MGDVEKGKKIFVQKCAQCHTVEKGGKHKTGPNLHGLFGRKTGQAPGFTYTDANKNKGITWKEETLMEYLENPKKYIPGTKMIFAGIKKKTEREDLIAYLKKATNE

Turning to Cytochrome c wild type, P00004, under “GdnHCl, KCl 0.1-1.0 M”, the denaturant m value turned out to be 3.31 kcal/mol/M, the “denaturant midpoint (higher = more stable)” value was 2.47 M and the unfolding free energy worked out at 8.18 kcal/mol. For the same substance, where the note is “Urea, KCl 0.1-1.0 M”, the denaturant m value turned out to be 1.28 kcal/mol/M, the “denaturant midpoint (higher = more stable)” value is 6.26 M and the unfolding free energy stood at 8.02 kcal/mol. The denaturant m value (Urea, KCl 0.1 M) was 1.25 kcal/mol/M and 1.37 kcal/mol/M.
